These results are taken from patent US20220235135A1 (COUNCIL OF THE QUEENSLAND INSTITUTE OF MEDICAL RESEARCH, published 2022).

The chains are these.
B1: P9-10 (antibody, human IgG1, kappa, V domains shown)
VH: EVQLVESGGGLVQPGGSLRLSCAASGFTFDYYVIHWVRQAPGKGLEWVAAIDSYWGDTYYADSVKGRFTISADTSKNTAYLQMNSLRAEDTAVYYCARFYFYGFDYWGQGTLVTVSS
VL: DIQMTQSPSSLSASVGDRVTITCRASQSVSSAVAWYQQKPGKAPKLLIYSASSLYSGVPSRFSGSRSGTDFTLTISSLQPEDFATYYCQQYSWSLWTFGQGTKVEIKR
notes: bivalent monospecific native human full-length IgG1; also called ABS clone P9-10
B2: P9-18 (antibody, human IgG1, kappa, V domains shown)
VH: B1 VH with D30S, Y31W, D52Y, S53P, W55H, G56S, D57K, F99G, F101W, F104M
VL: B1 VL with S92T, W93D, S94A, L95P
notes: the murine IgG backbones were used only in vivo; also called ABS clone P9-18; Clone 18
B3: P9-32 (antibody, human IgG1, kappa, V domains shown)
VH: EVQLVESGGGLVQPGGSLRLSCAASGFTFSAYWIHWVRQAPGKGLEWVALIGPDGGYTYYADSVKGRFTISADTSKNTAYLQMNSLRAEDTAVYYCARQASRGLDYWGQGTLVTVSS
VL: B1 VL with Y91W, W93S, S94P, W96H
notes: bivalent monospecific native human full-length IgG1; also called ABS clone P9-32
B4: P9-22 (antibody, human IgG1, kappa, V domains shown)
VH: EVQLVESGGGLVQPGGSLRLSCAASGFTFSSYYIHWVRQAPGKGLEWVAAIYPFSGGTYYADSVKGRFTISADTSKNTAYLQMNSLRAEDTAVYYCARGYYVYVVMDYWGQGTLVTVSS
VL: B1 VL with S92K, W93S, L95P
notes: bivalent monospecific native human full-length IgG1; also called ABS clone P9-22; α-GAL9 (P9-22)
B5: P9-16 (antibody, human IgG1, kappa, V domains shown)
VH: B4 VH with S31Y, Y33W, A50D, F54S, G57Y, Y100W, V102A, Y103A, V104Y, V105G
VL: B1 VL with S92A, W93L, S94R, L95P, W96L
notes: bivalent monospecific native human full-length IgG1; also called ABS clone P9-16
B6: P9-15 (antibody, human IgG1, kappa, V domains shown)
VH: EVQLVESGGGLVQPGGSLRLSCAASGFTFRYYWIHWVRQAPGKGLEWVAAIFPSGGITTYADSVKGRFTISADTSKNTAYLQMNSLRAEDTAVYYCARGWPWGLDYWGQGTLVTVSS
VL: B1 VL with Y91R, S92D, W93R, L95P, W96Y
notes: bivalent monospecific native human full-length IgG1; also called ABS clone P9-15; Clone 15
B7: P9-28 (antibody, human IgG1, kappa, V domains shown)
VH: EVQLVESGGGLVQPGGSLRLSCAASGFTFGFYYIHWVRQAPGKGLEWVAFIDPHGGSTYYADSVKGRFTISADTSKNTAYLQMNSLRAEDTAVYYCARLSYPGVLDYWGQGTLVTVSS
VL: B1 VL with Y91G, S92Y, W93S, S94T, W96V
notes: bivalent monospecific native human full-length IgG1; also called ABS clone P9-28; α-GAL9 (P9-28)

Changes are numbered by the printed parent chain.

In the experiment the target is T1, Human GAL9 protein (Galectin-9) (human, UniProt O00182 1-355).
T1 construct: Bought His-tagged protein; also called hGAL9; Human Gal9 His-tag (Acro Biosystems Cat #LG9-H5244)
T1 sequence (O00182 whole entry): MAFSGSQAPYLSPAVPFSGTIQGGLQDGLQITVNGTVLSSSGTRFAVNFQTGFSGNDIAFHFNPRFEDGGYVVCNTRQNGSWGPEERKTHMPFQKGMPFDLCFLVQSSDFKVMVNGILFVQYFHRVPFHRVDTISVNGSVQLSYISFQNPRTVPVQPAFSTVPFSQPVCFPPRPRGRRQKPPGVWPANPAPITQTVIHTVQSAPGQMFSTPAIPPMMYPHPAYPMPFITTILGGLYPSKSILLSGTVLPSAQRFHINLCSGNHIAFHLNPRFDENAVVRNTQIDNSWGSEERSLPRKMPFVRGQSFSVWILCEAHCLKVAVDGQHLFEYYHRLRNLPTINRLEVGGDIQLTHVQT
Briefly: Octet BLI, IgG1 on biosensor, GAL9 analyte dilution series, global fit (monovalent affinity).
Description: To measure qualitative binding affinity in the GAL9 binder discovery campaigns, IgG1 reformatted binders were immobilized to a biosensor on an Octet (Pall ForteBio) biolayer interferometer.
Soluble GAL9 antigen was then added to the system and binding measured. […] Octet kinetic analysis software was used to calculate the kinetic and equilibrium binding constants based on the rate of association and dissociation curves. Analysis was performed globally (global fit) where kinetic constants were derived simultaneously from all analyte concentration included in the experiment.
As usually defined, the Kd is the free concentration of one partner at which half of the binding sites on the other are occupied at equilibrium, for simple one-to-one binding. High values mean lower affinity, low ones higher affinity. As to B1, the dissociation constant (Kd) came to 5.77 nM.
Consider B2, for which the Kd amounted to 6.24 nM. This Kd and that of the molecule before are within 1.5-fold of each other.
The value for B3 was 1.08 nM.
Take B4: the dissociation constant (Kd) was 4.85 nM.
In the case of B5 it was 2.87 nM; in that of B6, 2.21 nM; in that of B7, 3.36 nM.
